According to article PMC10269810, “RNA Encapsulation Mode and Evolutionary Insights from the Crystal Structure of Emaravirus Nucleoprotein”:
Values joined by “and” are separate entries in the source; they are usually repeats but may differ in a detail not shown here. Equal entries are not always repeated.

Columns and labels:
[1] = target: fig mosaic virus nucleoprotein, full length (N^fl) (fig mosaic virus); experiment: SEC-MALS; RNA-free purified N^fl; conditions not given
[2] = target: trypsin-treated fig mosaic virus nucleoprotein lacking the first 45 N-terminal residues (N^ΔN45) (fig mosaic virus); experiment: crystal structure; N^ΔN45 co-crystallized with 42-mer poly(U) ssRNA, 20% PEG 3350, 0.2 M magnesium formate pH 5.9, space group P2_(1)2_(1)2_(1)
[3] = target: trypsin-treated fig mosaic virus nucleoprotein lacking the first 45 N-terminal residues (N^ΔN45) (fig mosaic virus); experiment: crystal structure; RNA-free N^ΔN45, hanging drop at 16°C, sodium formate pH 7.0, space group P2_(1), four molecules in the asymmetric unit
FMV N full length (Nfl) = FMV N full length (Nfl) (Fig mosaic virus (Fimoviridae, …, UniProt I2FFM8 1-315)); experiment: fluorescence polarization; RNA 1 uM; ITC: 20 mM Tris pH 7.4, 150 mM NaCl, 5% glycerol, 5 mM beta-ME, 25 C; FP: 1 uM RNA, 37 C 20 min incubation, buffer not stated (protein stock 20 mM Tris pH 7.5); details: protein: recombinant; tags: N-terminal 6xHis removed by TEV; chain copies: 4; label: 5' 6-carboxyfluorescein (FAM); single strand

For “fig mosaic virus nucleoprotein, full length (N^fl) (natural protein)”, the stoichiometry N [1] was 4 and 3 and 5.

With “trypsin-treated fig mosaic virus nucleoprotein lacking the first 45 N-terminal residues (N^ΔN45) (domain or fragment)” the stoichiometry N [2] was 4 and the stoichiometry N [3] was 4.

For UUUUUUUUUUUUUUUUUUUUUUUUUUUUUUUUUUUUUUUUUU (ssRNA) [poly(rU) 42-mer, FAM], the Kd (FMV N full length (Nfl)) was about 5 µM.
